The target of the test is low molecular weight single-chain urokinase plasminogen activator (lmw-scuPA), non-targeted (human, UniProt P00749 164-431). In words: ELISA on plates coated with soluble mouse PECAM. The protocol: The size and homogeneity of purified scFv/uPA-T was analyzed using 12% SDS-PAGE with or without addition of thrombin (150 nM). Conversion to its two-chain derivative was determined in the presence of 50 mM dithiothreitol (DTT). cDNA encoding the extracellular domain of mouse PECAM (amino acids Glu¹⁸-Lys⁵⁹⁰) was obtained by the reverse transcription polymerized chain reaction (RT-PCR) using mouse lung tissue total RNA. A FLAG affinity tag was fused to the N-terminus and subcloned into the BglII and NotI sites in the pMT/Bip vector. Stable cell lines were generated. Soluble mouse PECAM was purified from secreted supernatant using M2 anti-FLAG affinity chromatography. Specific binding of scFv/uPA-T to soluble PECAM was measured by ELISA. Each well within a 96-well plate was coated with 5 μg/ml soluble mouse PECAM protein overnight, the unbound sites were blocked with PBS containing 5% bovine serum albumin (BSA) at 37° C. for 1 h and various dilutions of scFv/uPA-T or WT lmw-scuPA were added for 1 hour. Unbound protein was removed by washing with PBS and 1 μg/ml anti-uPA monoclonal antibody in PBS containing 1% BSA was added. The wells were washed, horseradish peroxidase conjugated anti-mouse IgG was added, the wells washed again, TMB substrate was added and the optical density at 450 nm (OD450) was measured. […]
(In general: ELISA stands for enzyme-linked immunosorbent assay.)

B1: soluble mouse PECAM, extracellular domain (Glu18-Lys590) with N-terminal FLAG tag (receptor, UniProt Q08481 18-590, looked up, not shown: small tags and cut ends)
chain: EENSFTINSIHMESLPSWEVMNGQQLTLECLVDISTTSKSRSQHRVLFYKDDAMVYNVTSREHTESYVIPQARVFHSGKYKCTVMLNNKEKTTIEYEVKVHGVSKPKVTLDKKEVTEGGVVTVNCSLQEEKPPIFFKIEKLEVGTKFVKRRIDKTSNENFVLMEFPIEAQDHVLVFRCQAGILSGFKLQESEPIRSEYVTVQESFSTPKFEIKPPGMIIEGDQLHIRCIVQVTHLVQEFTEIIIQKDKAIVATSKQSSEAVYSVMAMVEYSGHYTCKVESNRISKASSIMVNITELFPKPKLEFSSSRLDQGELLDLSCSVSGTPVANFTIQKEETVLSQYQNFSKIAEESDSGEYSCTAGIGKVVKRSGLVPIQVCEMLSKPSIFHDAKSEIIKGHAIGISCQSENGTAPITYHLMKAKSDFQTLEVTSNDPATFTDKPTRDMEYQCRADNCHSHPAVFSEILRVRVIAPVDEVVISILSSNEVQSGSEMVLRCSVKEGTSPITFQFYKEKEDRPFHQAVVNDTQAFWHNKQASKKQEGQYYCTASNRASSMRTSPRSSTLAVRVFLAPWKK
notes: range 18-590; Secreted from Drosophila cells (pMT/Bip vector), purified on M2 anti-FLAG; coated on 96-well plates at 5 ug/ml; also called immobilized extracellular domain of mouse PECAM; immobilized mouse PECAM
B1: the binding result was “no binding”.

The record behind these values is patent US20090130104A1 (University of Pennsylvania, published 2009).
